# Reference: PMC10328077
# How the values were obtained:
# NT647-FH5-7 402Y (human) = NT647-FH5-7 402Y (human) (UniProt P08603); test: MST; NT647-FH5-7 402Y at 35 nM held constant, apoE2, apoE3 or apoE4 titrated; n = 3; Kd fit model of normalized (ΔFnorm) values; 150 mM KCl, 25 mM HEPES pH 7.5, 0.01% Tween 20, 0.01% NaN3
# [1] = molecular target: complement factor H (FH), NT647-labeled full-length FH (human) (UniProt P08603); test: MST; FH at 2 nM held constant (NT647-labelled by the legend of Fig 1I), native apoE2 or native apoE4 titrated; n = 3; Kd fit model of normalized (ΔFnorm) values; 150 mM KCl, 25 mM HEPES pH 7.5, 0.01% Tween 20, 0.01% NaN3
# Chain of complement factor H (FH), NT647-labeled full-length FH (human) (P08603 19-1231): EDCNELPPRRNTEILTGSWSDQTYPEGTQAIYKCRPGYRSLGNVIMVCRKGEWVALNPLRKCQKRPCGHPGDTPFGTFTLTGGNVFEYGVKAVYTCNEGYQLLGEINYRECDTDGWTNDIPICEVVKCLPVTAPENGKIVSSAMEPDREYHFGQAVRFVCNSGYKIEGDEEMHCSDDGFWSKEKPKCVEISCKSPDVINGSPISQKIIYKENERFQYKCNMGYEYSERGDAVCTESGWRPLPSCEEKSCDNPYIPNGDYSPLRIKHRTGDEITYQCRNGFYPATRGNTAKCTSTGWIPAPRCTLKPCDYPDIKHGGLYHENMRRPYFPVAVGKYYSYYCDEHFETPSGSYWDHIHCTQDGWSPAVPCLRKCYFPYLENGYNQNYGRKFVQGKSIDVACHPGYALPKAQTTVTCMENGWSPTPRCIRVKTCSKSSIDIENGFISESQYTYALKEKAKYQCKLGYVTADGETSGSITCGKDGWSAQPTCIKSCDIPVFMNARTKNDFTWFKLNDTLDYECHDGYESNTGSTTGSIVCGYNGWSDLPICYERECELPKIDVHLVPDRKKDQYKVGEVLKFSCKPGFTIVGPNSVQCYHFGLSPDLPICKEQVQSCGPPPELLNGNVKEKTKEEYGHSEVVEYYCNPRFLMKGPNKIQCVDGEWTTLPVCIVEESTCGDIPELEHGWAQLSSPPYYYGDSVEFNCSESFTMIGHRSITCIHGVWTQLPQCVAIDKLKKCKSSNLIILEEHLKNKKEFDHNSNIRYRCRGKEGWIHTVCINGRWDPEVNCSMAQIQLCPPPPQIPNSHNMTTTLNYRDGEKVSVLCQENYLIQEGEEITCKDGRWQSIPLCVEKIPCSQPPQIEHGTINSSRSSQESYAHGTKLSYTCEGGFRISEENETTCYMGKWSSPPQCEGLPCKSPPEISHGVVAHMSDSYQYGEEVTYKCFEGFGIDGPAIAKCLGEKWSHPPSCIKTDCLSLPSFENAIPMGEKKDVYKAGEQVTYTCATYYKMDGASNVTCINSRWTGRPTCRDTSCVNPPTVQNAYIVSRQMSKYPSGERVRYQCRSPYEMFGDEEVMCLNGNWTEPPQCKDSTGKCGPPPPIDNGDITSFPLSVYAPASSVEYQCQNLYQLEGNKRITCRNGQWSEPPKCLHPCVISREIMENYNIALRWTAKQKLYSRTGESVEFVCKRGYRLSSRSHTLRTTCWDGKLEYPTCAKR
# [2] = molecular target: NT647-labeled apoE2(1–165) fragment (human); test: MST; labelled apoE2(1-165) at 2.8 nM held constant, FH402H, FH402Y, FH1-4 or FH19-20 titrated; n = 3; Kd fit model of normalized (ΔFnorm) values; 150 mM KCl, 25 mM HEPES pH 7.5, 0.01% Tween 20, 0.01% NaN3
# Chain of NT647-FH5-7 402Y (human) (P08603 19-1231): as above
# Chain of FH402Y (P08603 19-1231): as above
# Chain of FH402H (P08603 19-1231 Y402H): as the sequence (P08603 19-1231) above, with Y384H counted along it
Substance,Kd (NT647-FH5-7 402Y (human)) [µM],Kd [2] [µM],also measured
apoE2 (from UniProt P02649 19-317) (natural protein),1,,
native apoE4 (from UniProt P02649 19-317) (natural protein),,,Kd [1]: 0.3 µM
native apoE2 (from UniProt P02649 19-317) (natural protein),,,Kd [1]: 0.002 µM
FH1-4 (domain or fragment),,0.999,
FH402H (from UniProt P08603 19-1231) (natural protein),,0.496,

# Further lines, with some results ahead:
Kd (NT647-FH5-7 402Y (human)) [µM],Kd [2] [µM],Substance,also measured
1.95,,apoE4 (from UniProt P02649 19-317) (natural protein),
,0.253,FH402Y (from UniProt P08603 19-1231) (natural protein),
1.38,,apoE3 (from UniProt P02649 19-317) (natural protein),
